Experiments:
[1] = molecular target: T1, HER3 on SK-BR-3 cell surface (UniProt P21860 20-1342, limits assumed); experiment: FACS on SK-BR-3 cells, anti-human IgG Fc-Alexa Fluor 647 detection
T1 construct: whole, on cells; The target is the HER3 carried on SK-BR-3 cells; also called surface HER3 of SK-BR-3 cells; SK-BR-3 cells expressing HER3

human HER3-his [2] = molecular target: T2, human HER3-his (human, UniProt P21860 20-643); experiment: indirect ELISA, huHER3-his coated at 0.5 µg/mL, goat anti-human IgG Fc-HRP
T2 construct: Coating antigen of the ELISA; also called huHER3-his; antigen human HER3-his; not shown: his tag

human HER3-his [3] = molecular target: T2, human HER3-his; experiment: indirect ELISA, huHER3-his coated at 0.5 µg/mL; antibody 0.001 nM; replicate 1
human HER3-his [4] = molecular target: T2, human HER3-his; experiment: indirect ELISA, huHER3-his coated at 0.5 µg/mL; antibody 0.001 nM; replicate 2
human HER3-his [5] = molecular target: T2, human HER3-his; experiment: indirect ELISA, huHER3-his coated at 0.5 µg/mL; antibody 0.004 nM; replicate 1
human HER3-his [6] = molecular target: T2, human HER3-his; experiment: indirect ELISA, huHER3-his coated at 0.5 µg/mL; antibody 0.004 nM; replicate 2
human HER3-his [7] = molecular target: T2, human HER3-his; experiment: indirect ELISA, huHER3-his coated at 0.5 µg/mL; antibody 0.012 nM; replicate 1
human HER3-his [8] = molecular target: T2, human HER3-his; experiment: indirect ELISA, huHER3-his coated at 0.5 µg/mL; antibody 0.012 nM; replicate 2
human HER3-his [9] = molecular target: T2, human HER3-his; experiment: indirect ELISA, huHER3-his coated at 0.5 µg/mL; antibody 0.037 nM; replicate 1
human HER3-his [10] = molecular target: T2, human HER3-his; experiment: indirect ELISA, huHER3-his coated at 0.5 µg/mL; antibody 0.037 nM; replicate 2
human HER3-his [11] = molecular target: T2, human HER3-his; experiment: indirect ELISA, huHER3-his coated at 0.5 µg/mL; antibody 0.111 nM; replicate 1
human HER3-his [12] = molecular target: T2, human HER3-his; experiment: indirect ELISA, huHER3-his coated at 0.5 µg/mL; antibody 0.111 nM; replicate 2
human HER3-his [13] = molecular target: T2, human HER3-his; experiment: indirect ELISA, huHER3-his coated at 0.5 µg/mL; antibody 0.333 nM; replicate 1
human HER3-his [14] = molecular target: T2, human HER3-his; experiment: indirect ELISA, huHER3-his coated at 0.5 µg/mL; antibody 0.333 nM; replicate 2
human HER3-his [15] = molecular target: T2, human HER3-his; experiment: indirect ELISA, huHER3-his coated at 0.5 µg/mL; antibody 1.000 nM; replicate 1
human HER3-his [16] = molecular target: T2, human HER3-his; experiment: indirect ELISA, huHER3-his coated at 0.5 µg/mL; antibody 1.000 nM; replicate 2
human HER3-his [17] = molecular target: T2, human HER3-his; experiment: indirect ELISA, huHER3-his coated at 0.5 µg/mL; antibody 0 nM (blank, background); replicate 1
human HER3-his [18] = molecular target: T2, human HER3-his; experiment: indirect ELISA, huHER3-his coated at 0.5 µg/mL; antibody 0 nM (blank, background); replicate 2

B1: anti-HER3 monoclonal antibody patritumab (antibody, human IgG1, kappa, V domains shown)
VH: QVQLQQWGAGLLKPSETLSLTCAVYGGSFSGYYWSWIRQPPGKGLEWIGEINHSGSTNYNPSLKSRVTISVETSKNQFSLKLSSVTAADTAVYYCARDKWTWYFDLWGRGTLVTVSS
VL: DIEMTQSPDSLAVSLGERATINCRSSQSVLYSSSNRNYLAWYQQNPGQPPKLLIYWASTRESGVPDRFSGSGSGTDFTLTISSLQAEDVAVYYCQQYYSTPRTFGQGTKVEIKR
notes: IgG1/kappa, expressed in 293F cells; also called HER3-targeted monoclonal antibody patritumab
[1]
  EC50: 8.48 nM
Human HER3-his [2]
  EC50: 0.009 nM
Human HER3-his [3]
  absorbance at 450 nm: 0.382 OD450
Human HER3-his [4]
  absorbance at 450 nm: 0.394 OD450
Human HER3-his [5]
  absorbance at 450 nm: 0.87 OD450
Human HER3-his [6]
  absorbance at 450 nm: 0.872 OD450
Human HER3-his [7]
  absorbance at 450 nm: 1.78 OD450
Human HER3-his [8]
  absorbance at 450 nm: 1.77 OD450
Human HER3-his [9]
  absorbance at 450 nm: 2.57 OD450
Human HER3-his [10]
  absorbance at 450 nm: 2.57 OD450
Human HER3-his [11]
  absorbance at 450 nm: 2.83 OD450
Human HER3-his [12]
  absorbance at 450 nm: 2.79 OD450
Human HER3-his [13]
  absorbance at 450 nm: 2.89 OD450
Human HER3-his [14]
  absorbance at 450 nm: 2.86 OD450
Human HER3-his [15]
  absorbance at 450 nm: 2.87 OD450
Human HER3-his [16]
  absorbance at 450 nm: 2.84 OD450
Human HER3-his [17]
  absorbance at 450 nm: 0.091 OD450
Human HER3-his [18]
  absorbance at 450 nm: 0.087 OD450
